Measurements reported in US20220089722A1 (published 2022).
Positions count from the first letter of the chain named.

How the values were obtained:
[1] = target: T1, hEGFR-6-his (SinoBiological) (human, UniProt P00533 25-645); assay: ELISA; printed value although curve is flat
[2] = target: T1, hEGFR-6-his (SinoBiological); assay: ELISA

B1: IgFD-7(anti-CD19/CD3) (bispecific antibody)
chain 1: EVQLVESGGGLVQPGGSLRLSCAASGFTFNTYAMNWVRQAPGKGLEWVARIRSKYNNYATYYADSVKDRFTISRDDSKNTLYLQMNSLRAEDTAVYYCVRHGNFGNSYVSWFAYWGQGTLVTVSSASTKGPSVFPLAPSSKSTSGGTAALGCLVKDYFPEPVTVSWNSGALTSGVHTFPAVLQSSGLYSLSSVVTVPSSSLGTQTYICNVNHKPSNTKVDKKVEPKSCDKTHTCPPCPAPPVAGPSVFLFPPKPKDTLMISRTPEVTCVVVDVSHEDPEVKFNWYVDGVEVHNAKTKPREEQYNSTYRVVSVLTVLHQDWLNGKEYKCKVSNKGLPSSIEKTISKAKGQPREPQVYTLPPSRDELTKNQVSLTCLVKGFYPSDIAVEWESNGQPENNYKTTPPVLDSDGSFFLYSKLTVDKSRWQQGNVFSCSVMHEALHNHYTQKSLSLSPGK
chain 2: QAVVTQEPSLTVSPGGTVTLTCRSSTGAVTTSNYANWVQQKPDHLFRGLIGGTNKRAPGTPARFSGSLLGDKAALTISGAQPEDEAEYYCALWYSNLWVFGGGTKLTVLKRTVAAPSVFIFPPSDEQLKSGTASVVCLLNNFYPREAKVQWKVDNALQSGNSQESVTEQDSKDSTYSLSSTLTLSKADYEKHKVYACEVTHQGLSSPVTKSFNRGECDKTHTCPPCPAPPVAGPSVFLFPPKPKDTLMISRTPEVTCVVVDVSHEDPEVKFNWYVDGVEVHNAKTKPREEQYNSTYRVVSVLTVLHQDWLNGKEYKCKVSNKGLPSSIEKTISKAKGQPREPQVYTLPPSRDELTKNQVSLTCLVKGFYPSDIAVEWESNGQPENNYKTTPPVLDSDGSFFLYSKLTVDKSRWQQGNVFSCSVMHEALHNHYTQKSLSLSPGKSGGGGSGGGGSGGGGSDIQMTQTTSSLSASLGDRVTISCRASQDISKYLNWYQQKPDGTVKLLIYHTSRLHSGVPSRFSGSGSGTDYSLTISNLEQEDIATYFCQQGNTLPYTFGGGTKLEITGGGGSGGGGSGGGGSEVKLQESGPGLVAPSQSLSVTCTVSGVSLPDYGVSWIRQPPRKGLEWLGVIWGSETTYYNSALKSRLTIIKDNSKSQVFLKMNSLQTDDTAIYYCAKHYYYGGSYAMDYWGQGTSVTVSS
[1]
  Kd: 0.161 nM

B2: IgFD-31(anti-CD3/EGFR) (bispecific antibody)
chain 1: EVQLVESGGGLVQPGGSLRLSCAASGFTFNTYAMNWVRQAPGKGLEWVARIRSKYNNYATYYADSVKDRFTISRDDSKNTLYLQMNSLRAEDTAVYYCVRHGNFGNSYVSWFAYWGQGTLVTVSSASTKGPSVFPLAPSSKSTSGGTAALGCLVKDYFPEPVTVSWNSGALTSGVHTFPAVLQSSGLYSLSSVVTVPSSSLGTQTYICNVNHKPSNTKVDKKVEPKSCGGSGAKLAALKAKLAALKGGGGSDKTHTCPPCPAPPVAGPSVFLFPPKPKDTLMISRTPEVTCVVVDVSHEDPEVKFNWYVDGVEVHNAKTKPREEQYNSTYRVVSVLTVLHQDWLNGKEYKCKVSNKGLPSSIEKTISKAKGQPREPQVYTLPPSRDELTKNQVSLTCLVKGFYPSDIAVEWESNGQPENNYKTTPPVLDSDGSFFLYSKLTVDKSRWQQGNVFSCSVMHEALHNHYTQKSLSLSPGK
chain 2: QAVVTQEPSLTVSPGGTVTLTCRSSTGAVTTSNYANWVQQKPDHLFRGLIGGTNKRAPGTPARFSGSLLGDKAALTISGAQPEDEAEYYCALWYSNLWVFGGGTKLTVLKRTVAAPSVFIFPPSDEQLKSGTASVVCLLNNFYPREAKVQWKVDNALQSGNSQESVTEQDSKDSTYSLSSTLTLSKADYEKHKVYACEVTHQGLSSPVTKSFNRGECGGGGSELAALEAELAALEAGGSGDKTHTCPPCPAPPVAGPSVFLFPPKPKDTLMISRTPEVTCVVVDVSHEDPEVKFNWYVDGVEVHNAKTKPREEQYNSTYRVVSVLTVLHQDWLNGKEYKCKVSNKGLPSSIEKTISKAKGQPREPQVYTLPPSRDELTKNQVSLTCLVKGFYPSDIAVEWESNGQPENNYKTTPPVLDSDGSFFLYSKLTVDKSRWQQGNVFSCSVMHEALHNHYTQKSLSLSPGKGGSGGSGGGGSGGGGSDIQMTQSPSSLSASVGDRVTITCQASQDISNYLNWYQQKPGKAPKLLIYDASNLETGVPSRFSGSGSGTDFTFTISSLQPEDIATYFCQHFDHLPLAFGGGTKVEIKGGGGSGGGGSGGGGSQVQLQESGPGLVKPSETLSLTCTVSGGSVSSGDYYWTWIRQSPGKGLEWIGHIYYSGNTNYNPSLKSRLTISIDTSKTQFSLKLSSVTAADTAIYYCVRDRVTGAFDIWGQGTMVTVSS
[2]
  Kd: 0.161 nM

B3: IgFD-26(anti-CD3/EGFR) (bispecific antibody)
chain 1: not shown
chain 2: QAVVTQEPSLTVSPGGTVTLTCRSSTGAVTTSNYANWVQQKPDHLFRGLIGGTNKRAPGTPARFSGSLLGDKAALTISGAQPEDEAEYYCALWYSNLWVFGGGTKLTVLKRTVAAPSVFIFPPSDEQLKSGTASVVCLLNNFYPREAKVQWKVDNALQSGNSQESVTEQDSKDSTYSLSSTLTLSKADYEKHKVYACEVTHQGLSSPVTKSFNRGECDKTHTCPPCPAPELLGGPSVFLFPPKPKDTLMISRTPEVTCVVVDVSHEDPEVKFNWYVDGVEVHNAKTKPREEQYASTYRVVSVLTVLHQDWLNGKEYKCKVSNKALPAPIEKTISKAKGQPREPQVCTLPPSREEMTKNQVSLSCAVKGFYPSDIAVEWESNGQPENNYKTTPPVLDSDGSFFLVSKLTVDKSRWQQGNVFSCSVMHEALHNHYTQKSLSLSPGKGGSGGSGGGGSGGGGSDIQMTQSPSSLSASVGDRVTITCQASQDISNYLNWYQQKPGKAPKLLIYDASNLETGVPSRFSGSGSGTDFTFTISSLQPEDIATYFCQHFDHLPLAFGGGTKVEIKGGGGSGGGGSGGGGSQVQLQESGPGLVKPSETLSLTCTVSGGSVSSGDYYWTWIRQSPGKGLEWIGHIYYSGNTNYNPSLKSRLTISIDTSKTQFSLKLSSVTAADTAIYYCVRDRVTGAFDIWGQGTMVTVSS
[2]
  Kd: 0.139 nM

B4: IgFD-25(anti-CD3/EGFR) (bispecific antibody)
chain 1: B1 chain 1 with S361C, T373W
chain 2: QAVVTQEPSLTVSPGGTVTLTCRSSTGAVTTSNYANWVQQKPDHLFRGLIGGTNKRAPGTPARFSGSLLGDKAALTISGAQPEDEAEYYCALWYSNLWVFGGGTKLTVLKRTVAAPSVFIFPPSDEQLKSGTASVVCLLNNFYPREAKVQWKVDNALQSGNSQESVTEQDSKDSTYSLSSTLTLSKADYEKHKVYACEVTHQGLSSPVTKSFNRGECDKTHTCPPCPAPPVAGPSVFLFPPKPKDTLMISRTPEVTCVVVDVSHEDPEVKFNWYVDGVEVHNAKTKPREEQYNSTYRVVSVLTVLHQDWLNGKEYKCKVSNKGLPSSIEKTISKAKGQPREPQVCTLPPSRDELTKNQVSLSCAVKGFYPSDIAVEWESNGQPENNYKTTPPVLDSDGSFFLVSKLTVDKSRWQQGNVFSCSVMHEALHNHYTQKSLSLSPGKGGSGGSGGGGSGGGGSDIQMTQSPSSLSASVGDRVTITCQASQDISNYLNWYQQKPGKAPKLLIYDASNLETGVPSRFSGSGSGTDFTFTISSLQPEDIATYFCQHFDHLPLAFGGGTKVEIKGGGGSGGGGSGGGGSQVQLQESGPGLVKPSETLSLTCTVSGGSVSSGDYYWTWIRQSPGKGLEWIGHIYYSGNTNYNPSLKSRLTISIDTSKTQFSLKLSSVTAADTAIYYCVRDRVTGAFDIWGQGTMVTVSS
[2]
  Kd: 0.15 nM
